B1: Eukaryotic initiation factor 4F subunit p150 (Saccharomyces cerevisiae), P39935 (parent)
chain: MTDETAHPTQSASKQESAALKQTGDDQQESQQQRGYTNYNNGSNYTQKKPYNSNRPHQQRGGKFGPNRYNNRGNYNGGGSFRGGHMGANSSNVPWTGYYNNYPVYYQPQQMAAAGSAPANPIPVEEKSPVPTKIEITTKSGEHLDLKEQHKAKLQSQERSTVSPQPESKLKETSDSTSTSTPTPTPSTNDSKASSEENISEAEKTRRNFIEQVKLRKAALEKKRKEQLEGSSGNNNIPMKTTPENVEEKGSDKPEVTEKTKPAEEKSAEPEVKQETPAEEGEQGEKGQIKEESTPKVLTFAERLKLKKQQKEREEKTEGKENKEVPVQEETKSAIESAPVPPSEQVKEETEVAETEQSNIDESATTPAIPTKSDEAEAEVEAEAGDAGTKIGLEAEIETTTDETDDGTNTVSHILNVLKDATPIEDVFSFNYPEGIEGPDIKYKKEHVKYTYGPTFLLQFKDKLNVKADAEWVQSTASKIVIPPGMGRGNRSRDSGRFGNNSSRGHDFRNTSVRNMDDRANSRTSSKRRSKRMNDDRRSNRSYTSRRDRERGSYRNEEKREDDKPKEEVAPLVPSANRWVPKFKSKKTEKKLAPDGKTELLDKDEVERKMKSLLNKLTLEMFDAISSEILAIANISVWETNGETLKAVIEQIFLKACDEPHWSSMYAQLCGKVVKELNPDITDETNEGKTGPKLVLHYLVARCHAEFDKGWTDKLPTNEDGTPLEPEMMSEEYYAAASAKRRGLGLVRFIGFLYRLNLLTGKMMFECFRRLMKDLTDSPSEETLESVVELLNTVGEQFETDSFRTGQATLEGSQLLDSLFGILDNIIQTAKISSRIKFKLIDIKELRHDKNWNSDKKDNGPKTIQQIHEEEERQRQLKNNSRSNSRRTNNSSNRHSFRRDAPPASKDSFITTRTYSQRNSQRAPPPKEEPAAPTSTATNMFSALMGESDDEE
partner: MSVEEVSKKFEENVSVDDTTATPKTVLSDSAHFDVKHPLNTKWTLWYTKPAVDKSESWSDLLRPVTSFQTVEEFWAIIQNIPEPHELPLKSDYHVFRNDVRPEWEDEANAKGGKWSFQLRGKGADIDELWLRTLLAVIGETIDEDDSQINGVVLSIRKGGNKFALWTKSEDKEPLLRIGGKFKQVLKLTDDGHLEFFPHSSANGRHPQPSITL

Variants of: B1
Settings: with if4e_yeast CDC33, P07260

Row | Variant | effect of a mutation on the interaction
1 | E425D | decreasing interaction
2 | K444A | decreasing interaction
3 | L457A;L458A | decreasing interaction
